Drawing on patent US20110265198, this text covers activity for three sequences.

Common to all, as to assay: cell_activity
One data set deals with ZFN 18477 (synthetic). As to conditions: pair with 18473; Cel-I assay.
The next data set deals with ZFN 25096 (synthetic). The settings on record: pair with 18473; Cel-I assay.
For the next data set, the system named is ZFN 18473 (synthetic). The settings on record: pair with 25096 (26.5% with 18477); Cel-I assay.

In the data set on ZFN 18477 (synthetic), “CTAGAAAGACTGGAGTTGCAGATCACGA (double strand) [18477 target]” displayed an activity of 26.5 % NHEJ. For the sequence “CTAGAAAGACTGGAGTTGCAGATCACGA (double strand) [25096 target]”, the activity with ZFN 25096 (synthetic) came out at 35.7 % NHEJ. As for “GATGGGCGGGAGTCTTCTGGGCAGGCTT (double strand) [18473 target]”, in the data set with ZFN 18473 (synthetic), the activity came out at 35.7 % NHEJ.
